Target: T1, Glu225Ala mutant RANKL (UniProt O35235 139-316, Glu225Ala)
T1 sequence (looked up): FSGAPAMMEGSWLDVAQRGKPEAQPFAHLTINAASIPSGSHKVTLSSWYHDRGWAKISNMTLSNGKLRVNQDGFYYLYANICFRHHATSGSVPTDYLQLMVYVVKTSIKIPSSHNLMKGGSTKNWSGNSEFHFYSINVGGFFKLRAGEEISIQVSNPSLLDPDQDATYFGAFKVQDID
Experiment: SPR

fold decrease of binding affinity against wild-type RANKL: 100 fold
B1: Recombinant soluble RANK (receptor activator of nuclear factor κ-B) (receptor, murine, UniProt O35305 31-214, looked up)
chain: VTPPCTQERHYEHLGRCCSRCEPGKYLSSKCTPTSDSVCLPCGPDEYLDTWNEEDKCLLHKVCDAGKALVAVDPGNHTAPRRCACTAGYHWNSDCECCRRNTECAPGFGAQHPLQLNKDTVCTPCLLGFFSDVFSSTDKCKPWTNCTLLGKLEAHQGTTESDVVCSSSMTLRRPPKEAQAYLPS

From article PMC5646979 (Molecular Medicine Reports, 2017)
